In paper PMC10578488:

Biological target: recombinant PRMT5/MEP50 complex (human) (UniProt O14744)
Experiment: SEC; PRMT5/MEP50 and purified U7 6S combined (molar ratio 4:8 or 4:2) in 20 mM Hepes pH 7.7, 100 mM NaCl, 2 mM DTT, 1 h on ice; Superose 6

recombinant PRMT5/MEP50 complex (human), sequence (O14744 whole entry, chain 1 of 2): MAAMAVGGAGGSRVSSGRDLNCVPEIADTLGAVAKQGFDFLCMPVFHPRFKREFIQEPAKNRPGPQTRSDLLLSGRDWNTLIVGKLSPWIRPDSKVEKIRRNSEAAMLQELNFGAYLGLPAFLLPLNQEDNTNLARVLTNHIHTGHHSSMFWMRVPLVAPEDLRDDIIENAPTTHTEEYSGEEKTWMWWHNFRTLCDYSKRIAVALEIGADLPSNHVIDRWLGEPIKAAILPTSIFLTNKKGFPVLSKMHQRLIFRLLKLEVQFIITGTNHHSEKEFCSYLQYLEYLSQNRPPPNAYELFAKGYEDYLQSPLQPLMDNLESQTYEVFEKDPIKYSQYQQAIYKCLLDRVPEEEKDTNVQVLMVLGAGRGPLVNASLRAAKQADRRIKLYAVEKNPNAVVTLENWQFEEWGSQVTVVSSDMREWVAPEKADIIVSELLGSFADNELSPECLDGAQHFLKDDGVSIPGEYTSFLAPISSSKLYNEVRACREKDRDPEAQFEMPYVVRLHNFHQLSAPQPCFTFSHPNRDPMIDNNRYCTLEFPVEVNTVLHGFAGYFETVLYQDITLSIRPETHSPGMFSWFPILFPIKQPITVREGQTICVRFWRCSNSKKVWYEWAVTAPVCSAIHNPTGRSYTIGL
recombinant PRMT5/MEP50 complex (human), sequence (Q9BQA1 whole entry, chain 2 of 2, further chain): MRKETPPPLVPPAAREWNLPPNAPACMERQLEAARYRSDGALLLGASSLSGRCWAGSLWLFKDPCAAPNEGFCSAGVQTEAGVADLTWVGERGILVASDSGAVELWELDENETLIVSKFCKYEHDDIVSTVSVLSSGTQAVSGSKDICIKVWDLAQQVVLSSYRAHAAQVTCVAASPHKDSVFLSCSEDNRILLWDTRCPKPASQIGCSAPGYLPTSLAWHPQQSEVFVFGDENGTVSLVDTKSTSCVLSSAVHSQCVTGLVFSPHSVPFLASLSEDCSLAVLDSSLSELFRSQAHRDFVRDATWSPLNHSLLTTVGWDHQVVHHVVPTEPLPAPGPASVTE

stoichiometry N (U7 6S per PRMT5/MEP50 heterooctamer): 1
Substance: U7 6S complex (MBP-Lsm10/11ΔNL heterodimer, SmE/F/G heterotrimer and pICln) (from UniProt Q969L4 1-123; P83369 153-360; P62304 1-92; P62306 1-86; P62308 1-76; Q61189 1-236)
